According to patent publication US20080274110A1 (published 2008):

Biological target: T1, β2 microglobulin (human, UniProt P61769 21-119)
T1 construct: The 12 kD band on its own, as probed by Western blotting; also called molecule of approximately 12 KD
Assay: Western blotting with the 2D7 antibody
From the text: As a result, a molecule (approximately 12 kD) that precipitates specifically in RPMI8226 and U266 cells was observed (FIG. 3). This molecule was not detected by Western blotting using the 2D7 antibody, but since it is at least reproducibly precipitated by the 2D7 antibody, it was strongly predicted to be the 2D7 antigen itself, or a molecule that co-precipitates with the 2D7 antigen.

binding result: no binding
B1: 2D7 antibody (antibody, mouse IgG2b, V domains shown)
VH: QVQLQQSGPELVKPGASVKMSCKASGYTFTDYFIHWVKQRPGQGLEWIGWIFPGDDTTDYNEKFRGKTTLTADKSSSTAYILLSSLTSEDSAMYFCVRSDDFDYWGQGTTLTVSS
VL: QIVLTQSPAIMSASPGEKVTITCSASSSVSYMHWFQQKPGTFPKLWIYSTSNLASGVPTRFSGSGSGTSYSLTISRMEAEDAATYYCQQRTSYPPTFGSGTKLEIK
notes: Whole mouse monoclonal antibody purified on Protein A from ascites of the 2D7 hybridoma (University of Tokushima); Primers for mouse IgG2b constant regions were used to clone its variable regions
